# Biological target: α-synuclein wild-type (UniProt P37840)
# Experiment: seeded fibril elongation kinetics
substance,measurement,value
α-synuclein C-terminally truncated variant AS(1-119) (from UniProt P37840 1-119) (domain or fragment),elongation rate constant k+ (monomer addition to AS(WT) seed fibril ends),2780 M⁻¹ s⁻¹

# Reference: article PMC6048717
